The record followed here is US20230038638A1, “COMPLEMENT FACTOR I-RELATED COMPOSITIONS AND METHODS” (published 2023).

One test has as its target T1, human C4b (human) (UniProt P0C0L4).
T1 sequence: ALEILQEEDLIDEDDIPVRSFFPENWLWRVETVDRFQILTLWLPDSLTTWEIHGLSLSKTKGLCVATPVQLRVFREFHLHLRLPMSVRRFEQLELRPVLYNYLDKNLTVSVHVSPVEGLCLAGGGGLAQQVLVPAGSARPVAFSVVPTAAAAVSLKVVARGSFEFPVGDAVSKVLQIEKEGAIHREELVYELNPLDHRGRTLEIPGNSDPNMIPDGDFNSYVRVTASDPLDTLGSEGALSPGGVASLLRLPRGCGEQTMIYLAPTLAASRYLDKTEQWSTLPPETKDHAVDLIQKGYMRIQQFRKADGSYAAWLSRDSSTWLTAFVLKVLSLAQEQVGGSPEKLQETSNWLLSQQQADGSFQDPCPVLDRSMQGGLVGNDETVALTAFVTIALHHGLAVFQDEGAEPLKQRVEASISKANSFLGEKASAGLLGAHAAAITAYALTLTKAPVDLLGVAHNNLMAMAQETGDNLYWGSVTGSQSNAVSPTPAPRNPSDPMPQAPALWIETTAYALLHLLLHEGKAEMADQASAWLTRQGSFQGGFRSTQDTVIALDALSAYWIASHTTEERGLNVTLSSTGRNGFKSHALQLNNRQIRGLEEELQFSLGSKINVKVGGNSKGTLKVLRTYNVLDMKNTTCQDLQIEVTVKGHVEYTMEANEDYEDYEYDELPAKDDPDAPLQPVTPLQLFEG

Test [1] deals with soluble human C3b (human) (UniProt P01024).

As to CFI-HSA variant F559L (enzyme), in the test with human C4b (human), the C4b Screen Ref Fold (fold of reference) worked out at 0.73. Further, in test [1], the iC3b Screen Ref Fold (fold of reference) came out at 1.54.
CFI-HSA variant G344K (enzyme): the C4b Screen Ref Fold (fold of reference) in the test with human C4b (human) worked out at 0.36. Besides, the iC3b Screen Ref Fold (fold of reference) in test [1] stood at 0.16.
Taken in the same sequence, the figures for “CFI-HSA variant G344K; Y408L; N531G (enzyme)” were 1.2 and 0.93.
On the same counts, the results for CFI-HSA variant G344R (enzyme) are 0.74 and 0.56.
On the same counts, the results for “CFI-HSA variant G344R; Y408L; N531G (enzyme)” are 3.03 and 0.98.
With CFI-HSA variant G344Y (enzyme), in the test with human C4b (human), the C4b Screen Ref Fold (fold of reference) stood at 1.93. In test [1], the iC3b Screen Ref Fold (fold of reference) turned out to be 0.43.
Turning to “CFI-HSA variant G406A; D425K; E457G; E461Q; N531G (enzyme)”, the C4b Screen Ref Fold (fold of CFI-HSA wild type) with human C4b (human) is 3.17. In addition, the iC3b Screen Ref Fold (fold of CFI-HSA wild type) in test [1] stood at 0.18.
On the same counts, the results for CFI-HSA variant G406A; Y403F (enzyme) are 1.47 and 1.15.
On to CFI-HSA variant G406A; Y408L (enzyme), for which the C4b Screen Ref Fold (fold of reference) with human C4b (human) worked out at 0.68. Besides, in test [1], the iC3b Screen Ref Fold (fold of reference) turned out to be 0.75.
For the substance CFI-HSA variant G406D; P535A (enzyme), in the test with human C4b (human), the C4b Screen Ref Fold (fold of reference) turned out to be 0.95. Further, in test [1], the iC3b Screen Ref Fold (fold of reference) was found to be 0.13.
Taken in the same sequence, the figures for “CFI-HSA variant G406D; Y408L; P535A (enzyme)” were 0.38 and 0.23.
On to CFI-HSA variant G469L (enzyme), for which, in the test with human C4b (human), the C4b Screen Ref Fold (fold of reference) worked out at 0.04. Moreover, the iC3b Screen Ref Fold (fold of reference) in test [1] is 0.
For the substance “CFI-HSA variant G469L; R456N; E457T; K458A (enzyme)”, the C4b Screen Ref Fold (fold of reference) in the test with human C4b (human) is -0.07. Besides, in test [1], the iC3b Screen Ref Fold (fold of reference) was 0.
On the same counts, the results for “CFI-HSA variant G469L; R456N; K458A (enzyme)” are -0.07 and 0.
On the same counts, the results for “CFI-HSA variant G469L; R456N; K458A; E461G (enzyme)” are -0.03 and 0.
For the substance “CFI-HSA variant G469L; R456N; K458A; E461G; F537K (enzyme)”, the C4b Screen Ref Fold (fold of reference) in the test with human C4b (human) is -0.02. Also, in test [1], the iC3b Screen Ref Fold (fold of reference) is 0.01.
As for CFI-HSA variant H383G (enzyme), in the test with human C4b (human), the C4b Screen Ref Fold (fold of CFI-HSA wild type) is -0.02. The iC3b Screen Ref Fold (fold of CFI-HSA wild type) in test [1] was 0.02.
As for “CFI-HSA variant I317D-R318D-R319D-K320D-R321K; Y408L; N531G; E457G; E461Q; R462K; F464Y (enzyme)”, in the test with human C4b (human), the C4b Screen Ref Fold (fold of reference) is -0.02. Further, in test [1], the iC3b Screen Ref Fold (fold of reference) amounted to 0.01.
On the same counts, the results for CFI-HSA variant I322T (enzyme) are 0.03 and 0.01.
As for CFI-HSA variant I345G (enzyme), the C4b Screen Ref Fold (fold of reference) in the test with human C4b (human) is 0.16. For the same substance, in test [1], the iC3b Screen Ref Fold (fold of reference) was -0.01.
As to CFI-HSA variant I382G (enzyme), the C4b Screen Ref Fold (fold of CFI-HSA wild type) in the test with human C4b (human) is 0.33. In addition, the iC3b Screen Ref Fold (fold of CFI-HSA wild type) in test [1] is -0.03.
Taken in the same sequence, the figures for CFI-HSA variant I389G (enzyme) were 0 and -0.03.
On the same counts, the results for CFI-HSA variant I391G (enzyme) are 0.03 and 0.01.
Take CFI-HSA variant I560V (enzyme): the C4b Screen Ref Fold (fold of reference) in the test with human C4b (human) came to 1.27. For the same substance, in test [1], the iC3b Screen Ref Fold (fold of reference) stood at 1.31.
